Blank lines part the entries; values can stand above or below the binder they belong to.
Columns and labels:
[1] = target: T1, P7bHq; test: two-hybrid library CCNG1;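 note: natural log of median RNA to DNA barcode read ratio; higher means stronger binding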
T1 chain: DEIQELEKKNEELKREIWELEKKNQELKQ

[2] = target: T2, P8bHq; test: two-hybrid library CCNG1;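 note: natural log of median RNA to DNA barcode read ratio; higher means stronger binding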
T2 chain: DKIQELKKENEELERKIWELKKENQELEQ

[3] = target: T3, P5bHq; test: two-hybrid library CCNG1;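 note: natural log of median RNA to DNA barcode read ratio; higher means stronger binding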
T3 chain: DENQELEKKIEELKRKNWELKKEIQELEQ

[4] = target: T4, P9bHq; test: two-hybrid library CCNG1;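 note: natural log of median RNA to DNA barcode read ratio; higher means stronger binding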
T4 chain: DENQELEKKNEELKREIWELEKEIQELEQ

[5] = target: T5, P6bHq; test: two-hybrid library CCNG1;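 note: natural log of median RNA to DNA barcode read ratio; higher means stronger binding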
T5 chain: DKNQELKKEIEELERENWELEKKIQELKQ

[6] = target: T6, P4bHq; test: two-hybrid library CCNG1;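 note: natural log of median RNA to DNA barcode read ratio; higher means stronger binding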
T6 chain: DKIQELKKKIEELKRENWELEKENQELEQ

[7] = target: T7, APC3645-AA; test: two-hybrid library CCmax; settings: mean of both orientations
T7 chain: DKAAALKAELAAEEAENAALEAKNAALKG

[8] = target: T8, 4H3330-AA; test: two-hybrid library CCmax
T8 chain: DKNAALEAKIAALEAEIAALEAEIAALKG

[9] = target: T9, APC7099-AA; test: two-hybrid library CCmax; settings: mean of both orientations
T9 chain: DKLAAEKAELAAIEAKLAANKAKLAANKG

[10] = target: T10, APC2237-AA; test: two-hybrid library CCmax; settings: mean of both orientations
T10 chain: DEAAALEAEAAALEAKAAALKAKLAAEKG

[11] = target: T11, APC232-AA; test: two-hybrid library CCmax; settings: mean of both orientations
T11 chain: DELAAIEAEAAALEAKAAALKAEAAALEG

[12] = target: T12, APC1015-AA; test: two-hybrid library CCmax; settings: mean of both orientations
T12 chain: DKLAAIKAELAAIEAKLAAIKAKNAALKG

[13] = target: T13, APC9319-AA; test: two-hybrid library CCmax; settings: mean of both orientations
T13 chain: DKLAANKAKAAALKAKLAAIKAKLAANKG

[14] = target: T14, APC2405-AA; test: two-hybrid library CCmax; settings: mean of both orientations
T14 chain: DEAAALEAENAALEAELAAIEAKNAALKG

[15] = target: T15, APC4011-AA; test: two-hybrid library CCmax; settings: mean of both orientations
T15 chain: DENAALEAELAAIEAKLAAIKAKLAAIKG

[16] = target: T16, APC5383-AA; test: two-hybrid library CCmax; settings: mean of both orientations
T16 chain: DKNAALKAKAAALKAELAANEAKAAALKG

[17] = target: T17, APC8910-AA; test: two-hybrid library CCmax
T17 chain: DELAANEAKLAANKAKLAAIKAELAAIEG

[18] = target: T18, APC9096-AA; test: two-hybrid library CCmax; settings: mean of both orientations
T18 chain: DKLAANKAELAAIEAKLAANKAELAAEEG

[19] = target: T19, 4H807-AA; test: two-hybrid library CCmax; settings: mean of both orientations
T19 chain: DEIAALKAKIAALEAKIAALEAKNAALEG

[20] = target: T20, APC4436-AA; test: two-hybrid library CCmax; settings: mean of both orientations
T20 chain: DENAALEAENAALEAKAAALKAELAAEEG

[21] = target: T21, APC4264-AA; test: two-hybrid library CCmax; settings: mean of both orientations
T21 chain: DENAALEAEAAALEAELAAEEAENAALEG

[22] = target: T22, APC1434-AA; test: two-hybrid library CCmax; settings: mean of both orientations
T22 chain: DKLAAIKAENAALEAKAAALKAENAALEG

[23] = target: T23, 4H733-AA; test: two-hybrid library CCmax; settings: mean of both orientations
T23 chain: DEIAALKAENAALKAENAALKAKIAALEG

[24] = target: T24, APC6108-AA; test: two-hybrid library CCmax; settings: mean of both orientations
T24 chain: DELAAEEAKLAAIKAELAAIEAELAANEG

[25] = target: T25, 4H716-AA; test: two-hybrid library CCmax; settings: mean of both orientations
T25 chain: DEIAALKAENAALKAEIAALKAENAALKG

[26] = target: T26, APC8191-AA; test: two-hybrid library CCmax; settings: mean of both orientations
T26 chain: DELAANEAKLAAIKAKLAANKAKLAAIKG

[27] = target: T27, 4H40-bN; test: two-hybrid library CCNG1
T27 chain: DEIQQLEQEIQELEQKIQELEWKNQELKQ

[28] = target: T28, 4H2692-bN; test: two-hybrid library CCNG1
T28 chain: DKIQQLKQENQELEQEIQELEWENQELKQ

[29] = target: T29, 4H348-bN; test: two-hybrid library CCNG1
T29 chain: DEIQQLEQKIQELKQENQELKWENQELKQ

[30] = target: T30, 4H3277-bN; test: two-hybrid library CCNG1
T30 chain: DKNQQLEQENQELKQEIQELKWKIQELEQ

[31] = target: T31, 4H492-bN; test: two-hybrid library CCNG1
T31 chain: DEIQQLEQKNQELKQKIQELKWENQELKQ

[32] = target: T32, 4H2503-bN; test: two-hybrid library CCNG1
T32 chain: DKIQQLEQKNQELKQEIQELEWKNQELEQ

[33] = target: T33, 4H2839-bN; test: two-hybrid library CCNG1
T33 chain: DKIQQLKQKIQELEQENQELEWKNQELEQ

[34] = target: T34, 4H2588-bN; test: two-hybrid library CCNG1
T34 chain: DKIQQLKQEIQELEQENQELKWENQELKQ

[35] = target: T35, 4H2915-bN; test: two-hybrid library CCNG1
T35 chain: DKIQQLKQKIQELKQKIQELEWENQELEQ

[36] = target: T36, 4H2673-bH; test: two-hybrid library CCNG1
T36 chain: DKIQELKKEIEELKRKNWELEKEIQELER

[37] = target: T37, 4H741-bN; test: two-hybrid library CCNG1
T37 chain: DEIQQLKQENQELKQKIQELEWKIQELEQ

[38] = target: T38, 4H2717-bN; test: two-hybrid library CCNG1
T38 chain: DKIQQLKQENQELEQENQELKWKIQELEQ

[39] = target: T39, 4H477-bN; test: two-hybrid library CCNG1
T39 chain: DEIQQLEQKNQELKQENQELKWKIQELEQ

[40] = target: T40, 4H319-bN; test: two-hybrid library CCNG1
T40 chain: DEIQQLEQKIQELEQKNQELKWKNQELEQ

[41] = target: T41, 4H2473-bN; test: two-hybrid library CCNG1
T41 chain: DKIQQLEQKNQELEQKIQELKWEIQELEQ

[42] = target: T42, 4H3057-bN; test: two-hybrid library CCNG1
T42 chain: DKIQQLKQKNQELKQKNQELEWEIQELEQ

[43] = target: T43, 4H72-bA; test: two-hybrid library CCNG1
T43 chain: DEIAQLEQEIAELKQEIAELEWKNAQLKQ

[44] = target: T44, 4H454-bA; test: two-hybrid library CCNG1
T44 chain: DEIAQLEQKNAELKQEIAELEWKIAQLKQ

[45] = target: T45, 4H338-bA; test: two-hybrid library CCNG1
T45 chain: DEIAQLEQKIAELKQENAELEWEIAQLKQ

[46] = target: T46, 4H4001-bA; test: two-hybrid library CCNG1
T46 chain: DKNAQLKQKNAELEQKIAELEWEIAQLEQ

[47] = target: T47, 4H3112-bA; test: two-hybrid library CCNG1
T47 chain: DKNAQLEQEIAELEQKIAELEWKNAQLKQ

[48] = target: T48, 4H908-bA; test: two-hybrid library CCNG1
T48 chain: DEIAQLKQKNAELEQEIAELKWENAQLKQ

[49] = target: T49, 4H754-bA; test: two-hybrid library CCNG1
T49 chain: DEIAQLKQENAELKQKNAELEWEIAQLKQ

[50] = target: T50, 4H3185-bA; test: two-hybrid library CCNG1
T50 chain: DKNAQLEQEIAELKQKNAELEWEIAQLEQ

[51] = target: T51, 4H717-bA; test: two-hybrid library CCNG1
T51 chain: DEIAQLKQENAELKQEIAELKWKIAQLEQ

[52] = target: T52, 4H3855-bA; test: two-hybrid library CCNG1
T52 chain: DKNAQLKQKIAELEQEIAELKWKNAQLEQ

[53] = target: T53, 4H2667-bA; test: two-hybrid library CCNG1
T53 chain: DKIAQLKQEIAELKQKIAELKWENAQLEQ

[54] = target: T54, 4H2618-bA; test: two-hybrid library CCNG1
T54 chain: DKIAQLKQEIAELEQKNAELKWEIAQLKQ

[55] = target: T55, 4H883-bA; test: two-hybrid library CCNG1
T55 chain: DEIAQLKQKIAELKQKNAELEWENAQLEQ

[56] = target: T56, 4H953-bA; test: two-hybrid library CCNG1
T56 chain: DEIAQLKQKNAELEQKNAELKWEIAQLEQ

[57] = target: T57, 4H331-bA; test: two-hybrid library CCNG1
T57 chain: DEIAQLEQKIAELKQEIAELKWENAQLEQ

[58] = target: T58, 4H568-bA; test: two-hybrid library CCNG1
T58 chain: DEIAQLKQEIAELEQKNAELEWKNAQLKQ

[59] = target: T59, 4H797-bA; test: two-hybrid library CCNG1
T59 chain: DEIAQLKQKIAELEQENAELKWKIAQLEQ

[60] = target: T60, 4H3189-bA; test: two-hybrid library CCNG1
T60 chain: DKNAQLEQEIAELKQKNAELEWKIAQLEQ

[61] = target: T61, 4H967-bA; test: two-hybrid library CCNG1
T61 chain: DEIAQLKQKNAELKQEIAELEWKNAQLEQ

[62] = target: T62, 4H2729-bA; test: two-hybrid library CCNG1
T62 chain: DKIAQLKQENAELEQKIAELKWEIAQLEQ

[63] = target: T63, 4H687-bA; test: two-hybrid library CCNG1
T63 chain: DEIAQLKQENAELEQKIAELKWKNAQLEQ

[64] = target: T64, 4H918-bA; test: two-hybrid library CCNG1
T64 chain: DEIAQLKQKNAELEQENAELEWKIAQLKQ

[65] = target: T65, 4H3427-bA; test: two-hybrid library CCNG1
T65 chain: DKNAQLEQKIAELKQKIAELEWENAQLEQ

[66] = target: T66, 4H3782-bA; test: two-hybrid library CCNG1
T66 chain: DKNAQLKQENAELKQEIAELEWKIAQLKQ

[67] = target: T67, 4H607-bA; test: two-hybrid library CCNG1
T67 chain: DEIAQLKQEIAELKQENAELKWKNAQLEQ

[68] = target: T68, 4H3354-bA; test: two-hybrid library CCNG1
T68 chain: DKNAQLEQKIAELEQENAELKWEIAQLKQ

B2: 4H3330-AA (peptide)
chain: DKNAALEAKIAALEAEIAALEAEIAALKG
interaction score [7]: -1.25 | interaction score [8]: 1.32 | interaction score [9]: -1.98 | interaction score [10]: -0.433 | interaction score [11]: -1.1 | interaction score [12]: -0.658 | interaction score [13]: 0.302 | interaction score [14]: -1.07 | interaction score [15]: 2.04 | interaction score [16]: -1.16 | interaction score [17]: -0.0896 | interaction score [18]: -1.65 | interaction score [19]: -1.35 | interaction score [20]: -1.42 | interaction score [21]: -1.37 | interaction score [22]: -1.62 | interaction score [23]: -1.48 | interaction score [24]: 0.0413 | interaction score [25]: -1.14 | interaction score [26]: 1.43

B4: P3bHq (peptide)
chain: DEIQELEKEIEELERKNWELKKKNQELKQ
interaction score [1]: 0.482 | interaction score [2]: 0.414 | interaction score [3]: 1.1 | interaction score [4]: -0.595 | interaction score [5]: -0.227 | interaction score [6]: 1.75

B5: 4H2618-bA (peptide)
chain: DKIAQLKQEIAELEQKNAELKWEIAQLKQ
interaction score [43]: 0.102 | interaction score [44]: 0.854 | interaction score [45]: 1.02 | interaction score [46]: 0.142 | interaction score [47]: -0.804 | interaction score [48]: -0.916 | interaction score [49]: -0.396 | interaction score [50]: 0.858 | interaction score [51]: -1.08 | interaction score [52]: -0.835 | interaction score [53]: 0.0194 | interaction score [54]: 0.484 | interaction score [55]: 0.137 | interaction score [56]: -1.3 | interaction score [57]: 0.866 | interaction score [58]: -0.965 | interaction score [59]: 0.0328 | interaction score [60]: -2.6 | interaction score [61]: -0.631 | interaction score [62]: 1.35 | interaction score [63]: 0.769 | interaction score [64]: 1.61 | interaction score [65]: 0.72 | interaction score [66]: -0.735 | interaction score [67]: -1.07 | interaction score [68]: 1.21

Other lines, results leading:

interaction score [1]: -1.11 | interaction score [2]: -0.273 | interaction score [3]: -1.27 | interaction score [4]: -0.875 | interaction score [5]: -0.00957 | interaction score [6]: -0.613
B1: P4bHq (peptide)
chain: DKIQELKKKIEELKRENWELEKENQELEQ

interaction score [27]: -0.598 | interaction score [28]: -0.666 | interaction score [29]: -0.231 | interaction score [30]: -1.47 | interaction score [31]: -0.992 | interaction score [32]: -1.11 | interaction score [33]: -1.21 | interaction score [34]: -1.58 | interaction score [35]: 0.258 | interaction score [36]: 0.46 | interaction score [37]: -1.72 | interaction score [38]: -2.13 | interaction score [39]: -0.81 | interaction score [40]: -0.961 | interaction score [41]: 0.273 | interaction score [42]: -0.442
B3: 4H2473-bN (peptide)
chain: DKIQQLEQKNQELEQKIQELKWEIQELEQ

From paper PMC10397247
